Patent US20170158768A1 (PENN STATE RESEARCH FOUNDATION, published 2017)

Biological target: T1, CD11b (mouse, UniProt P05555 17-1153)
T1 construct: Endogenous protein immunoprecipitated from Raw264.7 macrophage extracts with monoclonal CD11b antibody; Its integrin beta partner is not mentioned
Assay: co-immunoprecipitation with monoclonal CD11b antibody, Western blot

T1 sequence (P05555 17-1153 limits assumed): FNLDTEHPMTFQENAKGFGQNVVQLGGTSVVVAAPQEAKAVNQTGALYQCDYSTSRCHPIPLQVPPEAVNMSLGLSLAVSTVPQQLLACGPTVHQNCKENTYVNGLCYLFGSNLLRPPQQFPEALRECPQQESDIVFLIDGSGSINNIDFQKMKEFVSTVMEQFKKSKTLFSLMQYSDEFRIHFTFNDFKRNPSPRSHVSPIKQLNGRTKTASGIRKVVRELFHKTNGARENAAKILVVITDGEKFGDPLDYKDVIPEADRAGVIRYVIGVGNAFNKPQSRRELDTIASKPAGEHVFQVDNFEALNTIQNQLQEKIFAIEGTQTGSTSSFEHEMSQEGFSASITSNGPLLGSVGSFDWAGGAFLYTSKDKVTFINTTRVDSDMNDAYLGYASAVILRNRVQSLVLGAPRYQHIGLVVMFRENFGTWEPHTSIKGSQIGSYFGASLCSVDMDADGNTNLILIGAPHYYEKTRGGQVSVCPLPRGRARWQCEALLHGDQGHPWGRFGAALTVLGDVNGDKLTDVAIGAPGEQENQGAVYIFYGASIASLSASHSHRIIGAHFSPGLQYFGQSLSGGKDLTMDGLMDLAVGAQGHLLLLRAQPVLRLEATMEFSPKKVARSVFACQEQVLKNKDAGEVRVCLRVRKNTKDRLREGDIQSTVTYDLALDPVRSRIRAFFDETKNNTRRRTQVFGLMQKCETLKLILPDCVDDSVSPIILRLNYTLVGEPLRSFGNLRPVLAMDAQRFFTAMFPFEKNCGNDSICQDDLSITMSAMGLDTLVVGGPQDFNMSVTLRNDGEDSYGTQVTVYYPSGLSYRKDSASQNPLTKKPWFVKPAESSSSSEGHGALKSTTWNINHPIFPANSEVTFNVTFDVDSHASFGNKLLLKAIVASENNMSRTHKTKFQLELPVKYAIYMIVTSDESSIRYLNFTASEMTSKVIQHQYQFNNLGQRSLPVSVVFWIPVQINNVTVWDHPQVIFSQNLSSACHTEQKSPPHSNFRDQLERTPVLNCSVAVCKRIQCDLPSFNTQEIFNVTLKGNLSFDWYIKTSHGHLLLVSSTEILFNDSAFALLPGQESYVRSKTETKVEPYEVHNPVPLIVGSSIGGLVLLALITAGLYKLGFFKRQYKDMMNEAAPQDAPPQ

B1: TLR-2 (receptor, mouse, UniProt Q9QUN7 25-784, looked up)
chain: QESLSCDASGVCDGRSRSFTSIPSGLTAAMKSLDLSFNKITYIGHGDLRACANLQVLILKSSRINTIEGDAFYSLGSLEHLDLSDNHLSSLSSSWFGPLSSLKYLNLMGNPYQTLGVTSLFPNLTNLQTLRIGNVETFSEIRRIDFAGLTSLNELEIKALSLRNYQSQSLKSIRDIHHLTLHLSESAFLLEIFADILSSVRYLELRDTNLARFQFSPLPVDEVSSPMKKLAFRGSVLTDESFNELLKLLRYILELSEVEFDDCTLNGLGDFNPSESDVVSELGKVETVTIRRLHIPQFYLFYDLSTVYSLLEKVKRITVENSKVFLVPCSFSQHLKSLEFLDLSENLMVEEYLKNSACKGAWPSLQTLVLSQNHLRSMQKTGEILLTLKNLTSLDISRNTFHPMPDSCQWPEKMRFLNLSSTGIRVVKTCIPQTLEVLDVSNNNLDSFSLFLPRLQELYISRNKLKTLPDASLFPVLLVMKIRENAVSTFSKDQLGSFPKLETLEAGDNHFVCSCELLSFTMETPALAQILVDWPDSYLCDSPPRLHGHRLQDARPSVLECHQAALVSGVCCALLLLILLVGALCHHFHGLWYLRMMWAWLQAKRKPKKAPCRDVCYDAFVSYSEQDSHWVENLMVQQLENSDPPFKLCLHKRDFVPGKWIIDNIIDSIEKSHKTVFVLSENFVRSEWCKYELDFSHFRLFDENNDAAILVLLEPIERKAIPQRFCKLRKIMNTKTYLEWPLDEGQQEVFWVNLRTAIKS
B1: no binding.

B2: CD36 (receptor, mouse, UniProt Q08857 1-472, looked up)
chain: MGCDRNCGLIAGAVIGAVLAVFGGILMPVGDMLIEKTIKREVVLEEGTTAFKNWVKTGTTVYRQFWIFDVQNPDDVAKNSSKIKVKQRGPYTYRVRYLAKENITQDPEDHTVSFVQPNGAIFEPSLSVGTEDDNFTVLNLAVAAAPHIYQNSFVQVVLNSLIKKSKSSMFQTRSLKELLWGYKDPFLSLVPYPISTTVGVFYPYNDTVDGVYKVFNGKDNISKVAIIESYKGKRNLSYWPSYCDMINGTDAASFPPFVEKSRTLRFFSSDICRSIYAVFGSEIDLKGIPVYRFVLPANAFASPLQNPDNHCFCTEKVISNNCTSYGVLDIGKCKEGKPVYISLPHFLHASPDVSEPIEGLHPNEDEHRTYLDVEPITGFTLQFAKRLQVNILVKPARKIEALKNLKRPYIVPILWLNETGTIGDEKAEMFKTQVTGKIKLLGMVEMALLGIGVVMFVAFMISYCACKSKNGK
B2: no binding.
